The labels stand for the following.
B1: Ras GTPase-activating protein 1, residues 281 to 341; numbered along this chain, P20936 (parent)
chain: RRRVRAILPYTKVPDTDEISFLKGDMFIVHNELEDGWMWVTNLRTDEQGLIVEDLVEEVGR

± gives the uncertainty stated by the source.

The series covers variants of B1. As to the kind of experiment: abundance fitness (aPCA) (normalised: wild type 0, dead -1); higher = more abundant; growth selection in yeast, the domain comes from the species named. The settings on record: Homo sapiens.
With RRRVRAILPYTKVPDTDEISFDKGDMFIVHNELEDGWMWVTNLRTDEQGLIVEDLVEEVGR [L22D], the abundance fitness is -0.045 ± 0.045. Take RRRVRAILPYTKVPDTDEISFMKGDMFIVHNELEDGWMWVTNLRTDEQGLIVEDLVEEVGR [L22M]: the abundance fitness is -0.054 ± 0.062. The result for RRRVRAILPYTKVPDTDEISFWKGDMFIVHNELEDGWMWVTNLRTDEQGLIVEDLVEEVGR [L22W] reads -0.102 ± 0.058; that for RRRVRAILPYTKVPDTDEISFLKGDMAIVHNELEDGWMWVTNLRTDEQGLIVEDLVEEVGR [F27A], -0.901 ± 0.06; that for RRRVRAILPYTKVPDTDEISFLKGDMCIVHNELEDGWMWVTNLRTDEQGLIVEDLVEEVGR [F27C], -0.485 ± 0.029. As for RRRVRAILPYTKVPDTDRISFLKGDMFIVHNELEDGWMWVTNLRTDEQGLIVEDLVEEVGR [E18R], the figure is -0.353 ± 0.034; as for RRRVRAILPYTKVPDTDKISFLKGDMFIVHNELEDGWMWVTNLRTDEQGLIVEDLVEEVGR [E18K], -0.457 ± 0.11. As for RRRVRAILPYTKVPDTDLISFLKGDMFIVHNELEDGWMWVTNLRTDEQGLIVEDLVEEVGR [E18L], the figure is -0.35 ± 0.039. On to RRRVRAILPYTKVPDTDEISFLKGDRFIVHNELEDGWMWVTNLRTDEQGLIVEDLVEEVGR [M26R], for which the abundance fitness is -0.186 ± 0.032. Regarding RRRVRAILPYTKVPDTDEISFLKGDWFIVHNELEDGWMWVTNLRTDEQGLIVEDLVEEVGR [M26W], the abundance fitness was -0.104 ± 0.048. The result for RRRVRAILPYTKVPDTDEISFLKGDNFIVHNELEDGWMWVTNLRTDEQGLIVEDLVEEVGR [M26N] reads -0.029 ± 0.031.

As to RRRVRAILPYTKVPDTDEISFLKGDMFIVHNELEDGWMWVTNIRTDEQGLIVEDLVEEVGR [L43I], the abundance fitness was -0.012 ± 0.029. As for RRRVRAILPYTKVPDTDEISFLKGDMFIVHNELEDGWMWVTNKRTDEQGLIVEDLVEEVGR [L43K], the figure is -0.206 ± 0.065. As to RRRVRAILPYTKVPDTDEISFLKGDMFIVHNELEDGWMWVTNLRTDEQGLIREDLVEEVGR [V52R], the abundance fitness amounted to 0.043 ± 0.027. Regarding RRRVRAILPYTKAPDTDEISFLKGDMFIVHNELEDGWMWVTNLRTDEQGLIVEDLVEEVGR [V13A], the abundance fitness was determined as 0.018 ± 0.036. Consider RRRVRAILPYTKVPDTDEISFLKGDMFIVHNEPEDGWMWVTNLRTDEQGLIVEDLVEEVGR [L33P], for which the abundance fitness is -0.07 ± 0.039.

As for RRRVRAILPYTKVHDTDEISFLKGDMFIVHNELEDGWMWVTNLRTDEQGLIVEDLVEEVGR [P14H], the abundance fitness is -0.146 ± 0.032. The result for RRRVRAILPYTKVMDTDEISFLKGDMFIVHNELEDGWMWVTNLRTDEQGLIVEDLVEEVGR [P14M] reads -0.045 ± 0.063; that for RRRVRAILPYTKVADTDEISFLKGDMFIVHNELEDGWMWVTNLRTDEQGLIVEDLVEEVGR [P14A], -0.027 ± 0.03; that for RRRVRAILPYTKVPDTDEISFLKGDMFIVHNELEDGWMWVTNLRTDYQGLIVEDLVEEVGR [E47Y], -0.77 ± 0.038.

For RRRVRAILPYTKVPDTDEISFLKGDMFIVHNELEDGWMWVTNLRTDGQGLIVEDLVEEVGR [E47G], the abundance fitness is -0.684 ± 0.034. As to RRRVRAILPYTKVPDTDEISFLKGDMFIVHNELEDGWMWVTNLRTDESGLIVEDLVEEVGR [Q48S], the abundance fitness was -0.022 ± 0.025. Consider RRRVRAILPYTKVPDTDEISFLKGDMFIVHNELEDGWMWVTNLRTDEQGLIVEDLVEEVNR [G60N], for which the abundance fitness is -0.006 ± 0.065.

For RRRVRAILPYTKVPDTDEISFLKGDMFIVHNELEDGWMWVTYLRTDEQGLIVEDLVEEVGR [N42Y], the abundance fitness is -0.969 ± 0.057.

On to RRRVRAILPYTKVPDTDEISFLKGDMFIVHNELEDGWMWVTMLRTDEQGLIVEDLVEEVGR [N42M], for which the abundance fitness was -0.577 ± 0.098.

RRRVRAILPYTKVPDTDEISFLKGDMFIVHNELEDGWMWVTTLRTDEQGLIVEDLVEEVGR [N42T]: the abundance fitness is -0.875 ± 0.064. As for RRRVRAILPYTKVPDTDEISFLKGDMFMVHNELEDGWMWVTNLRTDEQGLIVEDLVEEVGR [I28M], the abundance fitness was -0.029 ± 0.031.

In the case of VRRVRAILPYTKVPDTDEISFLKGDMFIVHNELEDGWMWVTNLRTDEQGLIVEDLVEEVGR [R1V], the abundance fitness was -0.016 ± 0.038. The result for RRRVRAILPYFKVPDTDEISFLKGDMFIVHNELEDGWMWVTNLRTDEQGLIVEDLVEEVGR [T11F] reads -0.184 ± 0.026; that for RRRVRAILPYTKVPDTDEISFLKGDMFIVHNELEDGWMWVTNLETDEQGLIVEDLVEEVGR [R44E], -0.442 ± 0.091. As for RRRVRAILPYTKVPDTDEISFLKGDMFIVHNELEDGWMWVTNLCTDEQGLIVEDLVEEVGR [R44C], the figure is -0.47 ± 0.036.

As for RRRVRAILPYTRVPDTDEISFLKGDMFIVHNELEDGWMWVTNLRTDEQGLIVEDLVEEVGR [K12R], the abundance fitness is -0.052 ± 0.033. In the case of RRPVRAILPYTKVPDTDEISFLKGDMFIVHNELEDGWMWVTNLRTDEQGLIVEDLVEEVGR [R3P], the abundance fitness is -0.51 ± 0.04. For the variant RRAVRAILPYTKVPDTDEISFLKGDMFIVHNELEDGWMWVTNLRTDEQGLIVEDLVEEVGR [R3A], the abundance fitness was -0.292 ± 0.035. For the variant RRDVRAILPYTKVPDTDEISFLKGDMFIVHNELEDGWMWVTNLRTDEQGLIVEDLVEEVGR [R3D], the abundance fitness was -0.514 ± 0.037.

In the case of RRTVRAILPYTKVPDTDEISFLKGDMFIVHNELEDGWMWVTNLRTDEQGLIVEDLVEEVGR [R3T], the abundance fitness is -0.136 ± 0.037. Regarding RRRVRAILPYTKVPDTDEISFLAGDMFIVHNELEDGWMWVTNLRTDEQGLIVEDLVEEVGR [K23A], the abundance fitness is -0.038 ± 0.031. As for RRRVRAILPYTKVPDTDEISFLKGDMFIVHNELELGWMWVTNLRTDEQGLIVEDLVEEVGR [D35L], the abundance fitness is -0.207 ± 0.033. RRRVRAILPYTKVPDTDEISFLKGDMFIVHNELEHGWMWVTNLRTDEQGLIVEDLVEEVGR [D35H]: the abundance fitness was -0.038 ± 0.03.

With RRRVRAILPYTKVPDTDEISFLKGDMFIVHNELEYGWMWVTNLRTDEQGLIVEDLVEEVGR [D35Y], the abundance fitness was -0.268 ± 0.029. The result for RRRVRAILPYTKVPDTDEISFLKGDMFIVHNELEDGWMWVTNLRTDEQGLIVCDLVEEVGR [E53C] reads -0.079 ± 0.026; that for RRRVRAILPYTKVPDTDEISFLKGDMFIVHNELEDGWMWVTNLRTDEQGLIVLDLVEEVGR [E53L], -0.236 ± 0.03; that for RRRVRAILPYTKVPDTDEISFLKGDMFIVHNELEDGWMWVTNLRTDEQRLIVEDLVEEVGR [G49R], -1.04 ± 0.079.
